Data on one molecule can be found in patent publication EP4703474A1, “ANTI-LRRC15 ANTIBODY” (priority 2023, dated 2024).

The test system of this assay is Esophageal carcinoma cell line EC-GI-10. Briefly: In vivo antitumor effect, EC-GI-10 subcutaneous transplant model. To be noted: 0.4 mg/kg, tail vein, on Day 35, female NSG mice. The procedure:
The antitumor effects of the antibody-drug conjugates were evaluated by using animal models in which cells of a human tumor cell line had been transplanted into immunodeficient mice, or cells of a mouse tumor cell line had been transplanted into immunocompetent mice. 4 to 6 Week-old SCID mice (CB17/Icr-Prkdc[scid]/CrlCrlj, Jackson Laboratory Japan, Inc.), NSG mice (NOD.Cg-Prkdcscid Il2rgtm1Wjl/SzJ, Jackson Laboratory Japan, Inc.), or B6J mice (C57BL/6J, Jackson Laboratory Japan, Inc.) were habituated for 3 days or more under SPF conditions before experimental use. The mice were fed with sterilized solid feed and given sterilized tap water. The major and minor diameters of the transplanted tumors were measured twice a week with an electronic digital caliper (Mitutoyo Corporation), and the estimated tumor volume was calculated using the following formula. Estimated tumor volume (mm^3) = 1/2 × major diameter (mm) × [minor diameter (mm)]^2 All antibody-drug conjugates were diluted with ABS and administered into the tail vein at doses shown in each Example. In addition, ABS (vehicle) or control hIgG-PBD prepared in Reference Example 4 was administered as the control group, in a similar manner. 5 to 6 Mice were used per group in the experiment. To analyze the LRRC15 expression in mouse tumor models, immunohistochemical staining of LRRC15 was performed. […]

B1: H02L01-V1-PBD (conjugate)
heavy: EVQLVESGGGLVQPGGSLRLSCAASGFTFRDYYMAWVRQAPGKGLEWVSSIGFDESRTYYADSVKGRFTISRDDSKNTLYLQMNSLRAEDTAVYYCARHGVSKYSGDNWFAYWGQGTLVTVSSASTKGPSVFPLAPSSKSTSGGTAALGCLVKDYFPEPVTVSWNSGALTSGVHTFPAVLQSSGLYSLSSVVTVPSSSLGTQTYICNVNHKPSNTKVDKKVEPKSCDKTHTCPPCPAPEAAGGPSVFLFPPKPKDTLMISRTPEVTCVVVDVSHEDPEVKFNWYVDGVEVHNAKTKPREEQYNSTYRVVSVLTVLHQDWLNGKEYKCKVSNKALAAPIEKTISKAKGQPREPQVYTLPPSREEMTKNQVSLTCLVKGFYPSDIAVEWESNGQPENNYKTTPPVLDSDGSFFLYSKLTVDKSRWQQGNVFSCSVMHEALHNHYTQKSLSLSPGK
light: DIQMTQSPSSLSASVGDRVTITCKSSQGLLYSGDQKNYLAWYQQKPGKAPKLLIYWASTRQSGVPSRFSGSGSGTDFTLTISSLQPEDFATYYCQQYYDPPYTFGQGTKVEIKRTVAAPSVFIFPPSDEQLKSGTASVVCLLNNFYPREAKVQWKVDNALQSGNSQESVTEQDSKDSTYSLSSTLTLSKADYEKHKVYACEVTHQGLSSPVTKSFNRGEC
As for B1, the “antitumor effect (estimated tumor volume)” value was “antitumor activity higher than that of the vehicle and control hIgG-PBD”.
